Source: the supplement of paper PMC12042874
± gives the uncertainty stated by the source.

Experiment: amyloid nucleation score (Sup35N fusion, yeast selection) (log enrichment); library NNK3; higher = more nucleation; inactive = no reads after selection
Method in brief: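 DiMSum was used to calculate nucleation scores as log enrichment of output over input reads, centred on the mode score of non-aggregating sequences. Sequences with fewer than 100 input reads were not scored. Input and output came from Illumina sequencing of plasmid inserts in psi-negative yeast expressing peptides of 20 random codons fused to Sup35N, induced 24 hours with 100 μM copper sulfate and then grown 7 days at 30°C on medium lacking adenine and uracil.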

| Substance | amyloid nucleation score |
| --- | --- |
| SSLMRIHLPLVYQ | inactive |
| SSLPRPLVFRSLFVWREYIQ | -0.06 ± 0.77 |
| SSLQHSAW | inactive |
| SSNNQMWTELITYCLRCAWV | inactive |
| SSNTTMRINSVRH | inactive |
| SSPRSMASYQRSKIRWVSEF | inactive |
| SSSLCASWHPYLKWKSYRMF | inactive |
| SSSLVRCHG | inactive |
| SSSRCITLLVSIMVPISATC | inactive |
| SSTHIWGVQALGS | inactive |
| SSVENFLNVCNHLDES | 0.389 ± 0.25 |
| SSWLLLAGKIW | inactive |
| SSWSSRATLMLSSEVKSDMV | inactive |
| SSYLLRLLIFTSSIRRMFGS | inactive |
| SSYLMFDMLMRYYLNYFMCR | inactive |
| SSYLNYIFSMTLECIYGC | -0.272 ± 0.47 |
| STASILFIGVKYVM | 0.889 ± 0.32 |
| STETYWYSHLIINLVGSWF | inactive |
| STIISWWSTVIYFKLI | inactive |
| STIQSHCYKVVGV | inactive |
| STLGRKVRFTVVLITIGVLT | inactive |
| STLRSLCRPSGFGVAI | inactive |
| STLRWLR | inactive |
| STNMFVCDGRTPTNYWLGIR | 1.42 ± 0.14 |
| STPHAHIRSLFMSGYGILTN | inactive |
| STSICIGLLYAFVFEARVLC | inactive |
| STVCWHMQRVASTVAL | inactive |

| Substance | amyloid nucleation score |
| --- | --- |
| STVFDFSTLNFFCKSCSIFW | 2.22 ± 0.087 |
| STVVNSYMNFCACKGSNMAC | 2.7 ± 0.068 |
| STWDLNMCLFRYMFKI | inactive |
| STWMNTDYGDTTV | -0.277 ± 0.96 |
| SVCMVFYPVEREKEDQKSVE | inactive |
| SVERILLYGRCCFVRRA | 0.403 ± 0.2 |
| SVFCMLYLFWLSFLIVLLLM | 1.59 ± 0.13 |
| SVFDMDSMGTS | inactive |
| SVFQWHPFIESKGNLLSTVK | inactive |
| SVGCPVVRTQFILSPGQTSN | inactive |
| SVIIRRGTSQPNRVSWNKVK | inactive |
| SVIVTYVWVTAVVQGEYSTK | -0.095 ± 0.55 |
| SVIYIWDG | 0.425 ± 0.43 |
| SVKKESCCD | inactive |
| SVKRDFFSLFRFVSNAVSED | inactive |
| SVKTGYVDRPNLRTTFYGCL | inactive |
| SVLWLN | inactive |
| SVNKAWHSRLIVVLYNRLTG | 0.082 ± 0.18 |
| SVRHSWTMSVFFSDRNALAN | inactive |
| SVRRLGGLLLYCNHFMFD | inactive |
| SVRVSIFRGLVRNRWKFDGF | 0.666 ± 0.16 |
| SVSADGGFCIHGQTRPMAGL | 1.21 ± 0.095 |
| SVSVLV | inactive |
| SVTFANTSRHYPLADLSTPT | 0.162 ± 0.27 |
| SVVDRGASRFKRTVNVSNKA | inactive |
| SVVRVCSSCIVDYRMCESK | 0.927 ± 0.14 |
| SVYECNLIRDFIDRQGPNLA | 2.25 ± 0.058 |

| Substance | amyloid nucleation score |
| --- | --- |
| SWCCR | 1.4 ± 0.1 |
| SWFWVHHEFVFKALGTLIRT | inactive |
| SWGAWIGLWFRTGVLLDESA | inactive |
| SWGIEDSVSYEMETDVVSNW | inactive |
| SWISR | inactive |
| SWMYEFGSGTVKGGGKSELD | inactive |
| SWPVCWDHIWQSWGLTTSAV | inactive |
| SWRAVRRALLGRCNGSRVLV | inactive |
| SWTCRFCHMSFIGML | 0.251 ± 0.43 |
| SYDNWWCVILMRNQGRCAWG | inactive |
| SYFVWVNV | inactive |
| SYGKTFAMSYVW | inactive |
| SYINHTIPRVLWAITLRYLI | inactive |
| SYMACYFSIAYEYFNSTFDK | inactive |
| SYMLTFK | inactive |
| SYPERMLWSSVMADFKMRRP | inactive |
| SYQVCSKQTPHFSLSFIMFV | -0.488 ± 0.96 |
| SYRASSGCHWREPHGLSDVR | 0.897 ± 0.21 |
| SYRGSRRRSFTSYLCEFEGM | inactive |
| SYSGIYILSSFAATSSFILS | 0.46 ± 0.2 |
| SYSQKKRHVSKSTGSRAWQA | inactive |
| SYSRLWTQMNCTKVVNSYC | inactive |
| SYSWYFYSAGTSWI | inactive |
| SYTPHY | inactive |
| SYVAVPR | inactive |
| SYVVSQPFSHRYWESLTMAL | inactive |
